“And” between values parts separate entries of the source, which are not always exact repeats. Equal entries are not always repeated.

Experiment [1] has as its target chemokine receptor CCR2 on THP-1 cells (human) (UniProt P41597). Nature of the experiment: radioligand saturation binding on THP-1 cells, one-site binding hyperbola fit; molar conversion with 150 kDa.
For experiment [2] the target is unchanged. Nature of the experiment: radioligand saturation binding of 125I MCP-1 to THP-1 cells (CCR2), specific bound cpm, one site binding (hyperbola) fit.
For experiment [3] the target is unchanged. Nature of the experiment: radioligand saturation binding on THP-1 cells, one-site binding hyperbola fit; mass concentration as fitted.
The target of experiment [4] is T1, recombinant human MCP-1 (monocyte chemoattractant protein 1) (human, UniProt P13500 24-99).
T1 construct: Bought recombinant protein (RDI-304 for the EIA; R&D Systems 279-MC for the other assays); also called rHuMCP-1; cold MCP-1
T1 sequence (P13500 24-99 limits assumed): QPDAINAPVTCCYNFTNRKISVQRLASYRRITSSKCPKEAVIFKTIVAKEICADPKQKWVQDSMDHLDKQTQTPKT
Nature of the experiment: BIAcore, ratio of binding constants, reference eotaxin. Here is the method:
(§1) Anti-MCP-1 monoclonal antibodies were captured onto a BIAcore CM5 sensor surface (Biacore International, Piscataway, N.J.). A solution containing a mixture of rabbit anti-human Fc specific polyclonal antibodies and rabbit anti-mouse Fc specific polyclonal antibodies was first immobilized onto the sensor surface. After the restabilization of the new baseline, the anti-MCP-1 mAb is passed over the surface.
(§2) Analysis is performed as described above, with the exception only a single concentration is used, typically, a high ligand concentration (100 nM). Chemokines selected for mAb specificity were human forms of MCP-1, MCP-2, Eotaxin-1, Eotaxin-2 (CCL24, MPIF-2, NP_{—}002982) and Eotaxin-3 (CCL26, GenBank Q9Y258). All chemokines were purchased from R&D Systems. Dextran-sulfate (1%) was added to the sample buffer in the final round of assays to reduce non-specific binding, particularly to eotaxin-3.
The data for binding of C775 to each of the ligand described was processed to give a binding constant, where measurable. There was no measurable binding of C775 to any of the other MCP-1 homologs or eotaxin homologs. The calculated binding constant of C775 to MCP-1 by this method was 1.0 nM and for eotaxin >5 uM, respectively, for a ligand concentration 100 nM. Therefore, the binding specificity of C775 for MCP-1 as compared to eotaxin is >5000 fold. […]

Experiment [5] has as its target T1, recombinant human MCP-1 (monocyte …). Nature of the experiment: BIAcore, C775 captured on anti-Fc surface, MCP-1 in solution, 25 C.
Source text: as §1
(§3) Human MCP-1 purchased from R&D Systems (www.rndsystems.com) was reconstituted as proscribed by the vendor. Samples of varying concentrations were prepared using this stock solution. They were then passed over the surface of captured anti-MCP-1 mAb using KINJECT command at a flow rate of […]. Measurements are typically performed at 25° C. Sensor data was analyzed using the BLAevaluation software provided with the instrument.

Experiment [6] shares this target. Description: cell-based or functional assay.
Experiment [7] has as its target T2, human Eotaxin-2 (CCL24, MPIF-2) (human, UniProt O00175 27-104, limits assumed).
T2 sequence (looked up): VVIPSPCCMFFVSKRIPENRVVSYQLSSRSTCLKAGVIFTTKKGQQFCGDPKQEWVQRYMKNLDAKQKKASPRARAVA
Description: BIAcore, C775 captured on anti-Fc surface, single ligand concentration.
Source text: as §1, §3, §2

Another experiment concerns the target T3, human MCP-2 (human, UniProt P80075 24-99).
T3 sequence (looked up): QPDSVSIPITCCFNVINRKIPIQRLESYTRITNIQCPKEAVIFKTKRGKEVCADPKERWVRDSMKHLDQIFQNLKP
The experiment is described as above.
Source text: as §1, §3, §2

Another experiment has as its target T4, human Eotaxin-3 (CCL26) (human, UniProt Q9Y258 24-94).
T4 sequence (looked up): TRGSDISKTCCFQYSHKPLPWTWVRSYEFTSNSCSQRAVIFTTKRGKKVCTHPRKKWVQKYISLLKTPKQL
Described as above.
Source text: as §1, §3, §2

Experiment [8] concerns the target T5, 125I labeled human MCP-1 (NEX332, Perkin Elmer) (human, UniProt P13500 24-99, 125I label, residue not stated).
T5 construct: Bought radio-iodinated MCP-1; also called radiolabeled MCP-1
Description: inhibition of 125I MCP-1 (1 ng/ml) binding to CCR2 on THP-1 cells, filter plate radioligand assay. Here is the method: Negative controls (no inhibition) or total binding was measured in 50 ul of assay buffer with no other additions. Nonspecific binding (background) was measured by adding 50 ul of MCP-1 at a final concentration of […]. Test wells received 50 ul of serial dilutions of mAb. Lastly, 50 ul of ¹²⁵I MCP-1 at a final concentration of 1 ng/ml was added to all wells resulting in a total assay volume of […].
To test the efficacy of anti-MCP-1 mabs, a concentration of 1 ng/ml ¹²⁵I MCP-1 was used. Cells were incubated with 1 ng/ml ¹²⁵I MCP-1 with or without serial dilutions of either the commercial Mab (positive control) or 6 different Mabs generated in Example 2. There is a dose-dependent inhibition of ¹²⁵I MCP-1 binding to the CCR2 receptor with the commercial Mab. A dose-dependent inhibition was also observed with five of the six Centocor-generated Mabs allowing the calculation of an IC50 concentration: C727, C728, C752, C753 and, C775.

T5 sequence (P13500 24-99 limits assumed): as the sequence (P13500 24-99 limits assumed) above

As for “125I labeled human MCP-1 (NEX332, Perkin Elmer) (from UniProt P13500 24-99) (ligand)”, the Kd in experiment [1] came out at 1 nM; in [3], 0.00896 µg/mL. The same molecule registered a BMAX in experiment [2] of 15700 cpm.

B1: murine anti-human MCP-1 monoclonal antibody C775 (antibody, mouse IgG1, V domains shown)
VH: QVQLKQSGAELVRPGASVKLSCKASGYTFTDYYINWVKQRPGQGLEWIARIYPGTGNTYYNENFKGKATLTAEKSSSTAYMQLSSLTSEDSAVYFCARSGSTVVGNYYGMDYWGQGTSVTVSS
VL: SIVMTQTPKFLLVSAGDRVSITCKASQSVSNDVAWYQQKPGQSPKLLIYYASNRYTGVPDRFTGSGYGTDFTFTISTVQAEDLAVYFCQQDYSSPWTFGGGTKLEIKR
notes: also called CNTO4874; CNTO 4874
Consider B1, for which the “binding specificity for MCP-1 as compared to eotaxin (fold)” value in experiment [4] was more than 5000 fold. Further, in [5], the Kd was 1 nM. The “IC50 (nM), Ca2+ mobilization in THP-1 cells with 300 ng/ml MCP-1” value in experiment [6] came to 53 nM. Further, in experiment [6], the “IC50 (µg/ml), Ca2+ mobilization in THP-1 cells with 300 ng/ml MCP-1” value turned out to be 8.01 µg/mL. For the same molecule, the binding result (in experiment [7]; with human MCP-2; with human Eotaxin-3 (CCL26)) was “no binding (tested: 100 nM ligand)” throughout. Further, the IC50 in experiment [8] was 7.1 µg/mL and 47 nM.

Values taken from patent US20060039913A1 (Janssen / Centocor, published 2006).
